Results reported in patent publication US20190175688A1 (DREXEL UNIVERSITY, published 2019).
Starred links: 1 amine or outer side, 2 acyl side, 3 side chain; linkers in the order of their positions; H or OH if unused. Positions of bridges follow the written chain, without caps; N, C: chain ends. Non-standard residues stand in square brackets, D forms with d. No end group written: not given here. X2 = (2S,4S)‑4‑(4-ferrocenyl-1H-1,2,3-triazol-1-yl)pyrrolidine‑2‑carboxylic acid, O=C([C@@H]1C[C@H](n2cc(-[c-]3cccc3)nn2)CN1[*:1])[*:2].[Fe+2].c1cc[cH-]c1; X3 = (2S,4S)‑4‑(4-ferrocenyl-1H-1,2,3-triazol-1-yl)proline, O=C([C@@H]1C[C@H](n2cc(-[c-]3cccc3)nn2)CN1[*:1])[*:2].[Fe+2].c1cc[cH-]c1; Pro(cis-4-Trz(4-CH2CH2Ph)) = O=C(O)[C@@H]1C[C@H](n2cc(CCc3ccccc3)nn2)CN1; Bta = N[C@@H](Cc1csc2ccccc12)C(=O)O; Gly(cPr) = N[C@H](C(=O)O)C1CC1; Nle = CCCC[C@H](N)C(=O)O; Orn = NCCC[C@H](N)C(=O)O; Dab = NCC[C@H](N)C(=O)O

Assays:
[1] = molecular target: T1, HIV-1 YU-2 gp120 (wild-type gp120YU-2, monomeric) (HIV-1 (YU-2), UniProt P35961 32-498); assay: SPR competition, 17b inhibition: inhibition of gp120 binding to immobilized mAb 17b
T1 construct: domain: gp120; only gp120 stood in the assay

[2] = molecular target: T2, HIV-1 JR-FL envelope (gp120) on JR-FL pseudotyped virus (HIV-1 (JR-FL)); assay: cell-based or functional assay
[3] = molecular target: T1, HIV-1 YU-2 gp120 (wild-type gp120YU-2, …); assay: SPR competition, sCD4 inhibition: inhibition of gp120 binding to immobilized sCD4
[4] = molecular target: HIV-1 BaL.01 envelope on BaL.01 pseudotyped virus (HIV-1 (BaL.01)); assay: cell-based or functional assay
[5] = molecular target: T2, HIV-1 JR-FL envelope (gp120) on JR-FL …; assay: cell-based or functional assay; remark: listed apart in the source
[6] = molecular target: T1, HIV-1 YU-2 gp120 (wild-type gp120YU-2, …); assay: SPR competition: fixed 250 nM HIV-1 YU-2 gp120 with increasing peptide passed over immobilized sCD4; inhibition of gp120 binding to sCD4
[7] = molecular target: T1, HIV-1 YU-2 gp120 (wild-type gp120YU-2, …); assay: SPR competition (Biacore 3000): 250 nM gp120 YU-2 with increasing peptide over immobilised sCD4
[8] = molecular target: T1, HIV-1 YU-2 gp120 (wild-type gp120YU-2, …); assay: SPR competition binding assay on gp120
[9] = molecular target: T1, HIV-1 YU-2 gp120 (wild-type gp120YU-2, …); assay: SPR competition (Biacore 3000): 250 nM gp120 YU-2 with increasing peptide over immobilised mAb 17b
[10] = molecular target: T1, HIV-1 YU-2 gp120 (wild-type gp120YU-2, …); assay: SPR competition: fixed 250 nM HIV-1 YU-2 gp120 with increasing peptide passed over immobilized mAb 17b; inhibition of gp120 binding to 17b
[11] = molecular target: T1, HIV-1 YU-2 gp120 (wild-type gp120YU-2, …); assay: SPR competition on gp120; which of sCD4 or 17b is not said
[12] = molecular target: T1, HIV-1 YU-2 gp120 (wild-type gp120YU-2, …); assay: SPR competition: fixed 250 nM HIV-1 YU-2 gp120 with increasing peptide passed over immobilized mAb 17b; inhibition of gp120 binding to 17b; remark: listed apart in the source
[13] = molecular target: T1, HIV-1 YU-2 gp120 (wild-type gp120YU-2, …); assay: >
[14] = molecular target: T1, HIV-1 YU-2 gp120 (wild-type gp120YU-2, …); assay: SPR competition: fixed 250 nM HIV-1 YU-2 gp120 with increasing peptide passed over immobilized sCD4; inhibition of gp120 binding to sCD4; remark: listed apart in the source
[15] = molecular target: T1, HIV-1 YU-2 gp120 (wild-type gp120YU-2, …); assay: as above; remark: listed apart in the source
[16] = molecular target: T1, HIV-1 YU-2 gp120 (wild-type gp120YU-2, …); assay: SPR competition (Biacore 3000): 250 nM gp120 YU-2 with increasing peptide over immobilised sCD4; inhibition of CD4 binding to gp120
[17] = molecular target: T1, HIV-1 YU-2 gp120 (wild-type gp120YU-2, …); assay: SPR competition (Biacore 3000): 250 nM gp120 YU-2 with increasing peptide over immobilised mAb 17b; inhibition of mAb 17b binding to gp120

| Binder | IC50 [1] [nM] | IC50 [3] [nM] | IC50, HIV-1 infection inhibition, Bal.01 pseudotyped virus [4] [nM] | other results |
| --- | --- | --- | --- | --- |
| DNI[X2]WK-NH2 (lactam 1-6, Ferrocenyl analogue of AAR029) [AAR029b] | 35 | 32 | 210 | gp120 shedding EC50 (JR-FL pseudotyped virus, Western blot densitometry of supernatant) [2]: 316 nM; IC50, HIV-1 infection inhibition, JR-FL pseudotyped virus [5]: 190 nM |
| IENI[X3]WK-NH2 (lactam 2-7, Ferrocenyl analogue of AAR024) [AAR024b] | 37.6 | 40 | 650 | IC50, HIV-1 infection inhibition, JR-FL pseudotyped virus [5]: 603 nM |
| DNI[(2S,4S)‑4‑(4-(4-ethylphenyl)-1H-1,2,3-triazol-1-yl)pyrrolidine‑2‑carboxylic acid]WK-NH2 (lactam 1-6) [AAR029H] | ~245 | ~318 | ~1900 |  |
| DNI[Pro(cis-4-Trz(4-CH2CH2Ph))]WK-NH2 (lactam 1-6, Cyclic hexapeptide triazole; also called minimized hexapeptide AAR029; macrocycle AAR029) [AAR029] |  |  | 2020 | IC50 [6]: 85.2 nM; IC50 [7]: 85 nM; fold enhanced activity vs AAR029b [8]: ~2 fold; IC50 [9]: 96 nM; IC50 [10]: 95.5 nM; fold more active than AAR029A [11]: > 200 fold; IC50, HIV-1 infection inhibition, JR-FL pseudotyped virus [5]: 2330 nM |
| DNI[X2][Bta]K-NH2 (lactam 1-6) [AAR029E] | ~20 | ~20 | 26 |  |
| DNI[(2S,4S)‑4‑(4-(adamantan-2-yl)-1H-1,2,3-triazol-1-yl)pyrrolidine‑2‑carboxylic acid]WK-NH2 (lactam 1-6) [AAR029F] | ~200 | ~200 | ~1300 |  |
| IENI[Pro(cis-4-Trz(4-CH2CH2Ph))]WK-NH2 (N-terminus assumed; SMILES CC[C@H](C)[C@H](N)C(=O)N[C@@H](CCC(=O)O)C(=O)N[C@@H](CC(N)=O)C(=O)N[C@H](C(=O)N1C[C@@H](n2cc(CCc3ccccc3)nn2)C[C@H]1C(=O)N[C@@H](Cc1c[nH]c2ccccc12)C(=O)N[C@@H](CCCCN)C(N)=O)[C@@H](C)CC, Acyclic (linear) counterpart of AAR024; also called acyclic analogue of AAR024; linear AAR024A) [AAR024A] | 11300 | 7890 |  | IC50 [12]: 11300 nM; fold less active than AAR024 [13]: 50 fold; IC50 [14]: 7890 nM |
| ENNI[Pro(cis-4-Trz(4-CH2CH2Ph))]WK-NH2 (lactam 1-7; N-terminus assumed; SMILES CC[C@H](C)[C@@H]1NC(=O)[C@H](CC(N)=O)NC(=O)[C@H](CC(N)=O)NC(=O)[C@@H](N)CCC(=O)NCCCC[C@@H](C(N)=O)NC(=O)[C@H](Cc2c[nH]c3ccccc23)NC(=O)[C@@H]2C[C@H](n3cc(CCc4ccccc4)nn3)CN2C1=O, Cyclic peptide triazole) [AAR026] |  | 541 |  | IC50 [7]: 540 nM; IC50 [15]: 541 nM; IC50 [9]: 384 nM |
| DNI[Pro(cis-4-Trz(4-CH2CH2Ph))]W[Orn]-NH2 (lactam 1-6; N-terminus assumed; SMILES CC[C@H](C)[C@@H]1NC(=O)[C@H](CC(N)=O)NC(=O)[C@@H](N)CC(=O)NCCC[C@@H](C(N)=O)NC(=O)[C@H](Cc2c[nH]c3ccccc23)NC(=O)[C@@H]2C[C@H](n3cc(CCc4ccccc4)nn3)CN2C1=O) [AAR031] | 3900 | 5700 |  |  |
| ENI[Pro(cis-4-Trz(4-CH2CH2Ph))]W[Dab]-NH2 (lactam 1-6, also called macrocycle AAR030) [AAR030] | > 20000 | > 20000 |  |  |
| DNI[Pro(cis-4-Trz(4-CH2CH2Ph))]W[Dab]-NH2 (lactam 1-6; N-terminus assumed; SMILES CC[C@H](C)[C@@H]1NC(=O)[C@H](CC(N)=O)NC(=O)[C@@H](N)CC(=O)NCC[C@@H](C(N)=O)NC(=O)[C@H](Cc2c[nH]c3ccccc23)NC(=O)[C@@H]2C[C@H](n3cc(CCc4ccccc4)nn3)CN2C1=O) [AAR032] | 400 | 500 |  | fold improvement vs AAR031 [8]: ~10 fold |
| DN[Nle][X2]WK-NH2 (lactam 1-6) [AAR036] | ~2000 | ~2000 |  |  |
| DN[Gly(cPr)][X2]WK-NH2 (lactam 1-6) [AAR042] | ~2000 | ~2000 |  |  |
| IENI[Pro(cis-4-Trz(4-CH2CH2Ph))]WK-NH2 (lactam 2-7; N-terminus assumed; SMILES CC[C@H](C)[C@H](N)C(=O)N[C@H]1CCC(=O)NCCCC[C@@H](C(N)=O)NC(=O)[C@H](Cc2c[nH]c3ccccc23)NC(=O)[C@@H]2C[C@H](n3cc(CCc4ccccc4)nn3)CN2C(=O)[C@H]([C@@H](C)CC)NC(=O)[C@H](CC(N)=O)NC1=O, Cyclic peptide triazole; also called cyclic heptapeptide AAR024) [AAR024] |  |  |  | IC50 [16]: 138 nM; fold more active than the linear AAR024A [11]: > 40 fold; IC50 [17]: 269 nM |
